Assay results taken from PMC3762362.

Target: Endogenous bovine Arp2/3 complex, A7MB62;P61157
Assay: fluorescence anisotropy competition assay
Settings: chain shown with the change; reporter 20 nM VVCA-A462C-AF594; mixture incubated for 10 min prior to measurement; parent: est. 6.0 nM; read off a plot

- Kd: 20 nM
B1: GST-VCA (GST fusion of N-WASP residues 432–505), O00401 I467A (protein)
chain: SGRDALLDQIRQGIQLKSVADGQESTPPTPAPTSGAVGALMEVMQKRSKAIHSSDEDEDEDDEEDFEDDDEWED
